Measurements as given in the supplement of paper PMC6757056.
± gives the standard deviation of the averaged measurements.

B1: library; a variant is named by its letters at N, in order (parent)
chain: GCUGUCACCGGUGUAUUACCCUAGUGGUCGACCGGUCUGAUGAGUCUNNNNNNAGACGAAACAGC

What was measured:
hypoxanthine [1] = variants of: B1; test: FACS-Seq fitted mean relative fluorescence mCherry/BFP without ligand (log10 relative fluorescence); ligand: hypoxanthine (xanthine aptamer); higher = higher reporter protein expression; details: HEK293T, ligand present: no
Outline: (§1)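 With or without ligand for 48 h, enriched HEK293T libraries carrying a lentiviral ribozyme-switch mCherry reporter and EF1α-BFP were sorted into 6 mCherry/BFP bins. Bin genomic DNA was amplified by PCR, barcoded and sequenced on MiSeq. Fluorescence was taken from normal fits to the resulting bin counts. Each fitted mean of log10(mCherry/BFP) was scaled to five spiked-in control ribozymes.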

hypoxanthine [2] = variants of: B1; test: normalized RNA/DNA level with ligand (relative to sTRSVctl = 100) (log10 (% of sTRSVctl)); ligand: hypoxanthine (xanthine aptamer); higher = less ribozyme self-cleavage, higher mRNA level; details: ligand concentration (+) RNA-Seq: 5 mM, HEK293T, reporter: mCherry (pCS4076), ligand present: yes
Outline: (§2)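 Only sequences with at least 100 DNA reads were analyzed, from HEK293T cells transfected with 4 µg per 6-well well of ribozyme switch library plasmids 72 h before RNA extraction with EDTA. Any ligand was added 1 h before transfection. RNA level was defined as RNA over DNA reads, normalized to a spiked-in non-cleaving sequence or to the top sequences, then scaled and log-transformed. The top set was 25 sequences, and the scaling was ×100 followed by log10.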

hypoxanthine [3] = variants of: B1; test: normalized RNA/DNA level without ligand (relative to sTRSVctl = 100) (log10 (% of sTRSVctl)); ligand: hypoxanthine (xanthine aptamer); higher = less ribozyme self-cleavage, higher mRNA level; details: HEK293T, reporter: mCherry (pCS4076), ligand present: no
Outline: as §2

hypoxanthine [4] = variants of: B1; test: FACS-Seq fitted mean relative fluorescence mCherry/BFP with ligand (log10 relative fluorescence); ligand: hypoxanthine (xanthine aptamer); ligand concentration (+) FACS-Seq: 5 mM; higher = higher reporter protein expression; details: HEK293T, ligand present: yes
Outline: as §1

Variant	FACS-Seq fitted mean (log10) (hypoxanthine [1])	normalized RNA/DNA level with ligand (log10) (hypoxanthine [2])	normalized RNA/DNA level without ligand (log10) (hypoxanthine [3])	FACS-Seq fitted mean (log10) (hypoxanthine [4])
GCUGUCACCGGUGUAUUACCCUAGUGGUCGACCGGUCUGAUGAGUCUGUCAAGAGACGAAACAGC [GUCAAG]	0.65 ± 0.074	1.85 ± 0.077	1.46 ± 0.07	0.667 ± 0.011
GCUGUCACCGGUGUAUUACCCUAGUGGUCGACCGGUCUGAUGAGUCUGUCAAAAGACGAAACAGC [GUCAAA]	0.456 ± 0.0096	1.91 ± 0.047	1.733 ± 0.0061	0.532 ± 0.0073
GCUGUCACCGGUGUAUUACCCUAGUGGUCGACCGGUCUGAUGAGUCUUUCAAAAGACGAAACAGC [UUCAAA]	0.11 ± 0.051	1.95 ± 0.026	1.802 ± 0.0086	0.0695 ± 0.15
GCUGUCACCGGUGUAUUACCCUAGUGGUCGACCGGUCUGAUGAGUCUUUCAAGAGACGAAACAGC [UUCAAG]	0.352 ± 0.023	1.907 ± 0.0058	1.72 ± 0.056	0.545 ± 0.024
GCUGUCACCGGUGUAUUACCCUAGUGGUCGACCGGUCUGAUGAGUCUAUAUUCAGACGAAACAGC [AUAUUC]	0.242 ± 0.014	1.92 ± 0.042	1.88 ± 0.051	0.166 ± 0.071
GCUGUCACCGGUGUAUUACCCUAGUGGUCGACCGGUCUGAUGAGUCUAUAUUGAGACGAAACAGC [AUAUUG]	0.2149 ± 0.0019	1.87 ± 0.053	1.53 ± 0.075	0.486 ± 0.011
GCUGUCACCGGUGUAUUACCCUAGUGGUCGACCGGUCUGAUGAGUCUCUAUGGAGACGAAACAGC [CUAUGG]	0.518 ± 0.013	1.888 ± 0.00026	1.6 ± 0.027	0.234 ± 0.17
GCUGUCACCGGUGUAUUACCCUAGUGGUCGACCGGUCUGAUGAGUCUCUAUUGAGACGAAACAGC [CUAUUG]	0.179 ± 0.031	1.95 ± 0.048	1.843 ± 0.0087	0.763 ± 0.041
GCUGUCACCGGUGUAUUACCCUAGUGGUCGACCGGUCUGAUGAGUCUCUAUUAAGACGAAACAGC [CUAUUA]	0.569 ± 0.023	1.942 ± 0.019	1.85 ± 0.054	0.484 ± 0.053
GCUGUCACCGGUGUAUUACCCUAGUGGUCGACCGGUCUGAUGAGUCUCUAUUCAGACGAAACAGC [CUAUUC]	0.8316 ± 0.0023	2 ± 0.02	1.84 ± 0.055	0.762 ± 0.023
GCUGUCACCGGUGUAUUACCCUAGUGGUCGACCGGUCUGAUGAGUCUAUCAAGAGACGAAACAGC [AUCAAG]	0.0695 ± 0.06	1.85 ± 0.043	1.5 ± 0.06	0.339 ± 0.047
GCUGUCACCGGUGUAUUACCCUAGUGGUCGACCGGUCUGAUGAGUCUAUAUGUAGACGAAACAGC [AUAUGU]	0.416 ± 0.0064	1.886 ± 0.0057	1.68 ± 0.054	0.511 ± 0.015
GCUGUCACCGGUGUAUUACCCUAGUGGUCGACCGGUCUGAUGAGUCUAUAUGGAGACGAAACAGC [AUAUGG]	-0.462 ± 0.062	1.802 ± 0.0067	1.374 ± 0.0022	-0.111 ± 0.04
GCUGUCACCGGUGUAUUACCCUAGUGGUCGACCGGUCUGAUGAGUCUAUAUGAAGACGAAACAGC [AUAUGA]	0.609 ± 0.0086	1.924 ± 0.0023	1.7 ± 0.02	0.758 ± 0.018
GCUGUCACCGGUGUAUUACCCUAGUGGUCGACCGGUCUGAUGAGUCUUUAUUAAGACGAAACAGC [UUAUUA]	0.289 ± 0.0048	1.96 ± 0.086	1.91 ± 0.062	0.398 ± 0.036
GCUGUCACCGGUGUAUUACCCUAGUGGUCGACCGGUCUGAUGAGUCUGUAUGGAGACGAAACAGC [GUAUGG]	0.0518 ± 0.044	1.783 ± 0.01	1.331 ± 0.013	0.63 ± 0.026
GCUGUCACCGGUGUAUUACCCUAGUGGUCGACCGGUCUGAUGAGUCUGUAUGAAGACGAAACAGC [GUAUGA]	0.0955 ± 0.069	1.89 ± 0.049	1.64 ± 0.012	0.000695 ± 0.097
GCUGUCACCGGUGUAUUACCCUAGUGGUCGACCGGUCUGAUGAGUCUGUAUGUAGACGAAACAGC [GUAUGU]	0.23 ± 0.082	1.899 ± 0.013	1.77 ± 0.017	0.398 ± 0.0075
GCUGUCACCGGUGUAUUACCCUAGUGGUCGACCGGUCUGAUGAGUCUUUAUGAAGACGAAACAGC [UUAUGA]	-0.0342 ± 0.015	1.91 ± 0.04	1.64 ± 0.039	-0.0882 ± 0.046
GCUGUCACCGGUGUAUUACCCUAGUGGUCGACCGGUCUGAUGAGUCUUUAUGGAGACGAAACAGC [UUAUGG]	0.281 ± 0.094	1.89 ± 0.032	1.666 ± 0.015	0.317 ± 0.05
GCUGUCACCGGUGUAUUACCCUAGUGGUCGACCGGUCUGAUGAGUCUGUAUUGAGACGAAACAGC [GUAUUG]	-0.148 ± 0.011	1.882 ± 0.011	1.45 ± 0.1	0.209 ± 0.0066
